From the DeepSol protein solubility set

Assay: soluble on expression in E. coli; label from the status in PepcDB or PDB records

Sequence | soluble on expression in E. coli
MDSENKTSIAIGCKVCNKYKVTKLLGGGSYGCVHEVIELKTGDRYAMKSEYSSMKKPILLNELKVMKAIYTFSSQHVLKVRDMGVHGSTKFIIMQMLEKNMDEVFELLGGSMTLNTAVATSYQCLEGLEFMHWAGFLHRDIKPNNYCLDANSGQGLRTIYIIDYGICKRFVDNNNVIRQPRKITKFRGTLDFAPIVSHELREHSRGSDLES | not soluble
MGSDKIHHHHHHMQKHNIKRDCCKLLYLLICNSLFYRRSIMGVKVVKDLVYSYIEIDESVQKLIDTASFQRLKRIKQLSSSYIFPSTNHTRYEHSIGVMHLACNFFEVLEKDFRKYGLTEDRISYLRLHIKLAGLLHDVGHPPFSHLGEKFLDKNEIIACIKNEYSHLVDVDKTFYNNGRLIGKEHELLSCYCILRKFYKILKEEIDKNIDVAFICRCIIGNTYPDSENWDKNICVRIISSDSIDVDKLDYLTRDNHMTGEIAPKMDIKRLLACLTITENKELKYVAKAIPAVQTVVDSRDILYLWVYHHHISIYTDYIIGRILKRCMTLYDEHRGQALEEMNREEYFSPKAITDYLITDDDIYSHLRKIYVLSLEGKVDDFNTIIIKQIFERDFLKPLWKTIYEYKDFEKNLVDKKIIKSYDELEDILKNEKNIEDITNTLLKKLNLKEGEVFIITKYNKFYNSNKEAPISLLLNGEERKLSDLLPQKEFGKFHTMAFFVFVPKKYKKEAKEIVIEELQKISQT | not soluble
MRINFEKANSNHINIIFSWLKEPFIQEFWDNTQAHKDDILNFINGRTEPSSYADGKYVYWIASGNGHPFAMLMTIQETSEDEIDDIKLINLSKTGHSYGIDYMIGDKNYFGIGYGARTLIEFIDFFIKEVDPKADTFLIDPASDNPRAKHVYIKAGF | soluble
MLAERGANITGLDISGPMLQQGREKAQATGVDDRVEFMRGDAARLPFPDDHFDTVFAMRFFHLADTPAAFLAEMRRVSKEQVFFDTFNRFSTRSIYNWALPMGSRLYSRWEIDRLLDGAGLELTDANHDWLLPYGFYRKIPNELAASFRSLDTALGGTPLGEKLASVSYWNTHVLEHHHHHH | not soluble
MAEECSGNCDSCGSSSDCSDTKKMMEQQNAQIRDNMSKIKYKIAVMSGKGGVGKSTVTVNLAATLNMMGYKVGVLDGDIHGPNIPQMLGVDQIQPMADENGIYPVSTPQGIKTMSIGYFLPDKNTPIIWRGPKASGAIRQFLSDVNWGELDFLLIDTPPGSGDIQITTLQAIPDIDGVVIVTTPEEVSVLDARKSVSAANTLEIPIIGIVENMGGFVCPECDKVIDIFGKGGGEKAAKELNVFFLGRIPLDIKARVASDRGVPMVTMDCKASEEFKKVVNTVLERIKKELEHHHHHH | soluble
MGHHHHHHSHMDPDTFTFNFNNDPLVLRRRQTYLCYEVERLDNGWMVLMDQHMGFLCNEAKNLLCGFYGRHADWRFLDLVPSLQLDPAQIYRVTWFISWSPCFSWGCAGEVRAFLQENTHVRLPIFAARIYDYDPLYKEALQMLRDAGAQVSIMTYDEFEYCWDTFVYRQGCPFQPWDGLEEHSQALSGRLRAILQNQGN | not soluble
MATLDGINVKDIVKVERTSVHSHITGLGLNDRLEAEYVSGGMVGQVAARQAAGLIVKMIQEGKIAGRALLVTGEPGAGKTAIAIAISKELGEDTPFVSIVASEIYSNEINKTEALTQAFRRALGIQIKEETEVLEGEVISLEVDRSANGMGPKVGKLTMRTTDMETIYDLGSKMVDACLKEKVMPGDVIQVDKASGRVTRLGRSFNRSHDYDAMGPKVKLVQCPDGEIQKRRETVHTVCLHDIDVINSRTQGYVALFSGDTGEIKAEVRDQINKKVLEWREEGKAKFVPGVLFIDEAHMLDIECFSFLNRAIEGELSPLIIMATNRLIEKVRGTDVESAHGIPSDFLDRMLIINAIPYTKEDTAKILSIRCDEEGVKLQPTALDLLVKLQEATSLRYCIHLIAASEVIRIRSKAEIVTTDHIGSAYRLFFDTKRSEKILTEESAGFLQ | not soluble
MRPYIINQTEQAQARFGINNDFPVNVILMQPTTSHETFLEGSDYVDFESTSKLRNWPIIVGNQKYFVDPAIFARNSDYFRILMENKFFLEGAIKQLNILDESPEDILKLITVISPNSLGLYPDVIDEQNVCTVLRLCDKYLMTNLKQNCVDYLKDYNPDSREPTDIFHLFYHLCFSLNAEYEHDHSLADVALEAMFVCLVELFNSTNVTKFYRFLIELQRKSGEKDSENLKRVTDAVLHGGSIFKHRISFSEEVQGLGCHQCSMRPPARQSRSKNRKSFVLYLCKSCNREVCVQCRRSLCSRLFEDWINELRS | not soluble
PQEVESYVHRIGRTGRAGKEGTAITFITPQEYRRLLQIQKAVKKEIKKEKLPDVKDVIQAKKFRIIDDIGQILIDNDYDKFKKLAKDLLKMEDAENIVASLLKLSYSDVLDESNYNEISPVKMEDTGKTRLFIAMGRKDGMTPK | not soluble
MGSDKIHHHHHHLTIRVLAHLAGAHLDHAIALGLRSGLGDDWLRIGGLKLFADGSLGSESAHMLLPYEGRDHTGIAVIPPAEMQEIVTRANAHGISVVVHAIGDAANRSVLDAIAAARATAASLALPNRIEHCQILDPHDIPRFAELNVIASMQPIHCTADMVMAERLWGKRCATSYAWRSLRAAGATLAFGSDAPVETMDPWAGIHAAVTRQTTDGTPDGGWYPEQRLTLTEALEAYCIGPTIAGADAERRGRLIPGMFADLAVLNGDPFQMPVTHLHTLHAELTMVGGKIVFNRTSR | not soluble
MPFKLSPDCIVLAEPEKLHYPGDTVSGHIVLKFEKFSTCRAITLTVKGKAETGWDNVTKVGQWTYFNESGVLWKAEMSENRIEPGTHRIPFDYTVPENIPQSFEGPFGFIRFYIKVHMDRPHALDQCVKKEFLVTQKPTVVSKKHLGPEHIIRYCQKLNCNRGEIYFEAQLSNRIIFFDDPISLIIKIKNCSSRTIKKISLEAFQRIEYYSTTSACRKTHSVLIGKTGKSELKIRNDEIAISTFSMKFKEPATPSFASELIQVSYVLLVNLFTDGFWAAPLVFPVEFEVGKKSDVGTEDEETCDGLINFDED | not soluble
MMTNPKVIILGGRFGGLQTAYELKRYLKGKIDIKLIERNRYIYFRPALPHVAIGLENPDDLRIDISEALSAKGIEYIQGTVTRIDPAKNTVEYNKEGAGPSKEKYDYLVIALGSHLATELITGFEKFGSSVCEADLALSMWNKLNAFKGGNITLGSAKFIQDNKNRPTNNPDAYAPLLESACEGPVYEMSIMLYDYFKAKGMLDKVKMTVYSPGKYLSDLSETNRATVAAMYKGMDIDIVDNFVLKEVTEKEVISEDGKRLPSDLSFILPPYMGQQMVKDAGLGDEAGFVLTDTNMKSVKYDNVYAVGDINALIVPKMAALAVKSARIAAANIANNLGNKVPIEVYDPKIVCIADDPYGKYAVAIVDSTAYGGNISEAVPSAANHLKKSLFTRYFLWSKGDLAMDKYLTSWLEHHHHHH | not soluble
GPGSMSSIEELKVVRLFRALNTMIQLCHDRGYVIRHPSAIAEAVQNPELYNNEEGLDHDWFLRHFVISPDRAARSIRAKQRGDGSSRSGPRREAKNEEDGGDADKPGEYDVAADEDEALRRAANGEWVCMRNAMRLTCSVDPRRATLASSVLTGAPTNKAPSSAPAVTAEPKDDDGDVPYAVAAAAVDAKSKEKAAKNALMVFFSGSPKLSMKEVHSFREKALKKKASSMIVVTNKIDPGVRMDVQELSGRMDEATGAELLSIQVFEEEALAFNVVRHETVPRHVALTPAEAEAFLAERKLNVAQLPRMQESDPLVQYLGLQRGSIVHITREGKQSGPYSMYRHVI | soluble
MSLKTQQSYQQRDDKGTLYLVATPIGNLEDVTFRAIRTLKEADQIAAEDTRQTKKLLNHFDIATKLVSYHEHNKETMGKRLIDDLIEGRTIALVSDAGMPAISDPGYELVVSAIKEGIAVIPIPGANAAVTALIASGLPTESFQFIGFLPRQKKQRRQALEETKPTKATLIFYESPHRLKDTLDDMLLILGNRHVSICRELTKTYEEFLRGTLEEAVHWAREATIKGEFCLIVEGNGEKVEPEEVWWESLSPVQHVEHYIALGFRSKEAIKQVATDRGVPKRDIYNIYHQEEGHHHHHH | soluble
MGSDKIHHHHHHMNPCGFNKCYIQPSADLSVSLQIVSGKSRASISEIGSHMDSLQIDGLDILLHSYDGSPTHFGSAFLFPYANRVKDARYVMDGVEYRLPNNEGKNSIHGLVLDKNFSVISREEESITMETSIAGGEAYPSDLSVRISHSVDETSYRCEVTVINKGVKRSPIAAGFHPYFVYKNKWAIIKPETAWIMEYDGPFPTGKMDRMTFGDISYLNAYDNQFFADSDIIVDVGYSRLKITRNNMPFFVIYNGRYSAGSSVAIEPMMSAVDSFNNGIGLRLLNPGDTMKFGYSIDIV | not soluble
MPVKLATALSNNLFPALDSQLRAGRHIGIEELENHVFLMDFQEVLEEFYSRYNVELIRAPEGFFYLRPRSTTLIPRSVLSELDMMVGKILCYLYLSPERLAHEGIFSQQELYEELLSLADESKLLKLVNQRSTGSDLDRQKLQEKVRTSLNRLRRLGMIYFMGNDSSKFRITESVFRFGADVRSGDDAREAQLRMIRDGEAMPVEGSLSLKDDSDDNDRTDDTAPETGEDELEHHHHHH | not soluble
MGSDKIHHHHHHLGIYVNPTGRSFELAINSEIFVDKSGLIKETNKCINTLQRYMCVSRPRRFGKSMAMDMLSAYYGRKTDAENLFKGLKISHDESYDRHINKYDVLKINMQDFLSVTHSVDDMLKMLCEYITDDFSIECKDIIFRDKSNIVRVMQDVFMSTGRPFVILIDEWDCLFREFTQDKEAQKKYLDFLRGWLKDKDYIALAYMTGILPIKKYGSHSALNMFTEYSMTDMGALAEYFGFTDDEVRELCDRYDMDFEEARAWYNGYKLVSHSKYGVKKYAMYSPKSVVEAMLKHKFGTYWNQTETYEALKVYIQMNMDGLKDAVIKMLAGESEKINTGTFENDMTSFATKDDVLTLLVHLGYLTYDSETEEVSIPNREVSKEYLNAISTMDWDEVSKSIKASQKLLESLWNMNGAAVADGIDKAHNEISILRYNDENSLSCTINLAFYSAREYYSIVRELPTGKGFADVCFIPRVSHLDKPAVVIELKYDKNVDGAISQIKSRQYVEALKDYKGNLLLVGINYDKKTKEHQCVIEKWKL | not soluble
MDVAGLTDCGLIRKSNQDAFYIDEKHQRFFIVADGMGGHAGGEEASRLAVDHIRQYLETHLEDLQHDPVTLLRQAFLAANHAIVEQQRQNSARADMGTTAVVILLDEKGDRAWCAHVGDSRIYRWRKDQLQQITSDHTWIAQAVQLGSLTIEQARQHPWRHVLSQCLGREDLSQIDIQPIDLEPGDRLLLCSDGLTEELTDDVISIYLSEPNVQKAAAALVDAAKTHGGRDNVTVVVISV | soluble
MDVFDGLPDPIIVDILNKVGDVKTLLRCSSLSKRFNSLVPQSESLTLRLDHSVSDSPVVTSIFRSLFNGLVSLLSKPAKPITITTLSPSLPFKILSRFDRIRNLDVELPGGDVKLEKGAAVKWKAEFGKTLKSCVIVAFRSAGTVSSPVAVEGESDAEFVTGLKTRVVWTISALMAASSRHYLMREVVKEHEEIESLVMRDKEREGTVVMNEEGLKELRNTEARVEDEERVVKNKRSVVPSVRMSMRHAPSLKLKSGICLESATLVIVRPSGADFEVGDDAELATEAFVGDCMYGEAVVALLKCKKNALEMNSF | not soluble
MGSDKIHHHHHHAPQPTVAVARGKDYARTTRSALALLGGMKRFVKPGDVVVLKPNMGWDRTPAQAANTHPLVVRALAEEALAAGAKRVKVFDRTCNDERRCYVQSGISDALKGMKGVELKFIENERFRRVPIKGAVLPAWELYDEALSADVFINVPVAKHHGLSRLTLGLKNVMGVMGGNRGSIHRHLDDALADINSVLKSHLTVIDATRILTDHGPQGGSPADVKVMDTVIASTDIVAADAYATTLFGLKPEDIPVTVAAHKRGLGEMNLKRVRIVTA | not soluble
